Measured values: patent US8609089B2, “Compositions of PD-1 antagonists and methods of use” (Amplimmune, Inc., priority 2008, dated 2013)

B1: B7-DC-Ig-APC: B7-DC-Ig conjugated with allophycocyanin (APC) (conjugate)
chain: LFTVTAPKEVYTVDVGSSVSLECDFDRRECTELEGIRASLQKVENDTSLQSERATLLEEQLPLGKALFHIPSVQVRDSGQYRCLVICGAAWDYKYLTVKVKASYMRIDTRILEVPGTGEVQLTCQARGYPLAEVSWQNVSVPANTSHIRTPEGLYQVTSVLRLKPQPSRNFSCMFWNAHMKELTSAIIDPLSRMEPKVPRTWEPRGPTIKPCPPCKCPAPNLLGGPSVFIFPPKIKDVLMISLSPIVTCVVVDVSEDDPDVQISWFVNNVEVHTAQTQTHREDYNSTLRVVSALPIQHQDWMSGKEFKCKVNNKDLPAPIERTISKPKGSVRAPQVYVLPPPEEEMTKKQVTLTCMVTDFMPEDIYVEWTNNGKTELNYKNTEPVLDSDGSYFMYSKLRVEKKNWVERNSYSCSVVHEGLHNHHTTKSFSRTPGK
B2: B7-DC-Ig: homodimer having 2 copies of SEQ ID NO: 10 linked by a disulfide linkage; mouse B7-DC ECD fused to Fc of mouse IgG2a (protein)
chain: LFTVTAPKEVYTVDVGSSVSLECDFDRRECTELEGIRASLQKVENDTSLQSERATLLEEQLPLGKALFHIPSVQVRDSGQYRCLVICGAAWDYKYLTVKVKASYMRIDTRILEVPGTGEVQLTCQARGYPLAEVSWQNVSVPANTSHIRTPEGLYQVTSVLRLKPQPSRNFSCMFWNAHMKELTSAIIDPLSRMEPKVPRTWEPRGPTIKPCPPCKCPAPNLLGGPSVFIFPPKIKDVLMISLSPIVTCVVVDVSEDDPDVQISWFVNNVEVHTAQTQTHREDYNSTLRVVSALPIQHQDWMSGKEFKCKVNNKDLPAPIERTISKPKGSVRAPQVYVLPPPEEEMTKKQVTLTCMVTDFMPEDIYVEWTNNGKTELNYKNTEPVLDSDGSYFMYSKLRVEKKNWVERNSYSCSVVHEGLHNHHTTKSFSRTPGK
modifications: homodimer via disulfide; Murine B7-DC-Ig fusion protein without signal sequence
notes: mouse B7-DC ECD fused to Fc of mouse IgG2a

Columns and labels:
[1] = system: CT26 colorectal tumor cells; assay: CT26 subcutaneous established tumor model, tumor eradication; format: in vivo, Balb/C mice
Procedure: Mouse colorectal tumor cell line, CT26, was obtained from ATCC. A master cell bank at Passage 4 was generated following ATCC guidelines. […] One vial of tumor cells was thawed from the cryopreserved stocks and grown for two passages prior to inoculation.
CT26 cells were split at 1:5 dilution with 30 mL complete medium (RPMI+10% FBS, 2 mM L-Glu, and 1×P/S) for two days culture or at 1:10 dilution with 30 ml complete medium for 3 days culture.
CT26 cells were harvested by aspirating medium, rinsing the flask with 5 mL PBS, adding 5 mL trypsin, incubating at 37° C. for 2 min, and then neutralizing with 10 mL complete medium. After centrifuge at 600×g (˜1000 rpm) for 5 min, media was aspirated and the cell pellet was resuspended by pipetting with 10 ml plain RPMI. This wash step was repeated for three times.
Cell number and viability of the inoculated cells were analyzed by trypan blue dye staining with proper dilution (e.g. 1:5 dilution, 10 μL cells+40 μL trypan blue) and confirmed by NOVA cell count during the last wash step.
CT26 cells were diluted to 6.7×10^5 cells/mL for initial inoculation with plain RPMI and stored on ice. Typically each mouse was inoculated with 150 μL (1×10^5 cells).
CTX solution was reconstituted by 1×PBS to 4 mg/mL. […]
The same dose was given 2 time a week for 4 weeks, total 8 doses. […] Tumor volume was calculated as following: Tumor volume=π(Dshort)^2×(Dlong)/6=˜0.52×(Dshort)^2×(Dlong)
Mice were euthanized and taken off the study if the tumor volume reached 2000 mm^3 or if there were skin ulcers and infections at the tumor inoculation site.
On day 11 post tumor challenge, mice received a single dose of cyclophosphamide (100 mg/kg) and started treatment with anti-PD-1 antibody (250 ug, Clone G4, Hirano F. et al., 2005 Cancer Research) which was administered 3 times per week for four weeks.
On day 11 post tumor challenge, mice received 100 mg/kg of cyclophosphamide. Anti-CTLA4 (an anti-mouse CTLA4 from hamster hybridoma—ATCC deposit UC10-4F10-11) treatment was started 1 day later, on day 12. Mice were treated with 100 ug of anti-CTLA4, 2 doses per week, for 4 weeks.

[2] = system: Treg and CD4+ T cells expressing high PD-1; assay: T cell analysis in CT26 tumor-bearing mice (Treg, PD-1+/CD4+ T cells); format: in vivo, Balb/C mice
Procedure: On Day 9, mice were injected with 100 mg/kg of CTX, IP. […] Two naïve mice and 4 mice from other groups were removed from the study on Day 11 (2 days post CTX) and Day 16 (7 days post CTX) for T cell analysis. […] Mice implanted with tumor cells intended to have more PD-1+/CD4+ T cells in the draining LN compared with naïve mice.

AB1-HA tumor = conditions: CTX treatment at Day 9; van der Most et al. 2009; cited from earlier work
SP-1 cells = assay: Metastatic prostate tumor model, survival; format: in vivo, B10.D2 mice; conditions: CTX 50 mg/kg Day 5, 12, 19; B7-DC-Ig 5 mg/kg Day 6, 13, 20; SP-1 cells intravenously
Procedure: SP-1 cells were isolated from mouse lungs that were metastasized from TRAMP prostate tumor cell injection. B10.D2 mice were first injected with 3×10^5 SP-1 cells via tail vein injection. On Day 5, 12 and 19, mice were injected with 50 mg/kg of CTX where was indicated. […] Here, “NT” refers to “not treated”.
The CTX mice received 3 doses of CTX, 50 mg/kg, on Day 5, 12 and 19.

[3] = target: T1, CHO cell line constitutively expressing PD-1 (Homo sapiens, UniProt Q15116); assay: Flow cytometry binding to CHO cells expressing PD-1; conditions: various concentrations
T1 construct: expressed in transfected cells; host or cells: CHO
T1 sequence (Q15116 25-288): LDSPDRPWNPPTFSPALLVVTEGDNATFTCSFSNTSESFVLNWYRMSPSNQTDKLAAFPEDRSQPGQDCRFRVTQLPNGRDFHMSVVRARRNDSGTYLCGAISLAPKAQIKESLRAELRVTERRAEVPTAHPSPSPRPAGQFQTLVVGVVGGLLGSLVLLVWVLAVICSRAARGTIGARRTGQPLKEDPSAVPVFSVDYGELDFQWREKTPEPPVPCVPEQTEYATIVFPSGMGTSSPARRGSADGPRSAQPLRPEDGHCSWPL
Procedure: (§1) Binding was analyzed by flow cytometry.

[4] = system: parent CHO cells that do not express PD-1; assay: Flow cytometry binding to parent CHO cells; conditions: various concentrations
Procedure: as §1

PD-1 = target: T2, PD-1 (Homo sapiens, UniProt Q15116); assay: Competition with labeled B7-H1-Ig for binding to PD-1 on CHO cells; conditions: unlabeled competitor at various concentrations, then B7-H1-Ig-APC; MFI
T2 construct: expressed in transfected cells; host or cells: CHO
T2 sequence (Q15116 25-288): as above
Source text: B7-H1-Ig was first conjugated with allophycocyanin (APC).

Molecule	outcome of mice, CTX alone group ([1]; CTX 100 mg/kg day 10)	Treg in the spleen vs vehicle-injected tumor-bearing mice ([2]; Day 11, 2 days post CTX 100 mg/kg IP)	cure rate (AB1-HA tumor) [%]	mice survived on Day 100 (SP-1 cells) [%]	binding to CHO.PD-1 cells (median fluorescence intensity) [3]	binding to untransfected CHO cells (median fluorescence intensity) [4]	tumor eradication ([1]; cyclophosphamide 100 mg/kg day 9, 30 μg B7-DC-Ig from Day 10, 2 doses per week, 8 doses) [%]	tumor eradication ([1]; cyclophosphamide 100 mg/kg day 9, 100 μg B7-DC-Ig from Day 10, 2 doses per week, 8 doses) [%]	mice that eradicated the tumors ([1]; cyclophosphamide 100 mg/kg day 9, 300 μg B7-DC-Ig from Day 10, 2 doses per week, 8 doses) [%]	CD4+ T cells expressing high PD-1 ([2]; Day 16, 7 days post CTX and 6 days post B7-DC-Ig 100 ug, draining LN)	competition with B7-H1 for binding to PD-1 (PD-1)
O=P1(N(CCCl)CCCl)NCCCO1 (stereo not drawn) [CTX, cyclophosphamide, reference compound]	died as a result of tumor growth or were euthanized	significantly lower	75	17							
B1					binds to CHO.PD-1 cells	not untransfected CHO cells					
B2				17			10	40	70	significantly lowered the CD4+ T cells expressing high PD-1	competes with B7-H1 for binding to PD-1
